Read-outs that look alike come from different tables or passages of the source. Marks after values point to notes of the source that are not given here.
Columns and labels:
[1] = Activity of crude culture supernatants from bioreactor; assay type: biochemical; conditions: pNP-dodecanoate
[2] = Specific activity of purified enzymes (standard esterase assay); assay type: biochemical
Protocol: In summary, using different techniques for enzyme purification, pure enzyme preparations were obtained and tested for their activity towards a standard esterase substrate, pNP-palmitate. Enzymatic activities of the purified variants are summarized below:
(§1) Esterase activity was determined by monitoring the formation of para-nitrophenol (pNP) at 410 nm from various pNP-esters using a Beckman UV spectrophotometer (model DU 640). Substrates were completely dissolved in 2-propanol (8 mM) and were then added to 50 mM Tris/HCl buffer pH 8.0 to give a final substrate concentration of 0.8 mM. The reaction (1 mL) was started by adding an appropriate amount of enzyme. One enzyme unit (U) was defined as the amount of enzyme that produced 1 μmol of product (pNP) per min; specific activity was expressed as U/mg protein. A molar extinction coefficient of 15 mM^−1 cm^−1 was used for the calculation.

[3] = Enzyme substrate profiles, esterase assays; assay type: biochemical; conditions: highest activity towards a specific substrate set to 100%
Protocol: as §1

Temperature optimum = assay type: biochemical; conditions: for Relative activity at temperature: highest activity set to 100%
Protocol: For estimation of the temperature optimum, buffer containing pNP-palmitate (see esterase assay in Example 20.1) was pre-incubated to reach the desired temperature, enzyme was then added, and the formation of pNP was assayed. For this experiment, Tris/HCl buffer was replaced with sodium phosphate buffer (50 mM, pH 8.0) to avoid a pH shift at the different temperatures.

[4] = Enzymatic activity in the presence of organic solvents; assay type: biochemical; conditions: buffer only = 100%
Protocol: Enzyme activity in various organic solvents was studied over a concentration range of 1-30% at room temperature. pNP-palmitate was completely dissolved in 2-propanol (8 mM) and then added to 50 mM Tris/HCl buffer pH 8.0 containing up to 30% organic solvent to give a final substrate concentration of 0.8 mM. The reaction was started by addition of enzyme and the formation of pNP was assayed as described above in Example 20.1.

pH dependence of enzymes = assay type: biochemical; conditions: for Relative activity (%): highest activity = 100%
Protocol: The influence of different pH values (from 5.5 to 11) on the activities of the purified enzymes was examined in three buffer systems (sodium acetate, sodium phosphate, and Tris-HCl) at room temperature using pNP-palmitate (see esterase assay in Example 20.1) as a substrate at a final substrate concentration of 0.8 mM.

[5] = Stability in the presence of hydrogen peroxide; assay type: physicochemical
Protocol: as §1
Purified cutinases were incubated at room temperature in the presence of 0, 30, 100, 300, 1500, and 3000 ppm of hydrogen peroxide. Residual enzyme activity was assayed (see Example 20.1) after 1, 2, 3, and 7 days of incubation.

[6] = assay type: biochemical, Petromyces albertensis; conditions: for Residual ochratoxin A (%): 5 ppm Ochratoxin A, 37° C., relative to incubation without enzyme
Protocol: The enzymes purified in Example 18 were tested for their ability to degrade the mycotoxin Ochratoxin A. In general, the mycotoxin was incubated with different concentrations of the enzyme, and the remaining mycotoxin concentration, as well the respective degradation products, were monitored by LC-MS over time (where possible/applicable).
Reactions were performed in 1 mL volumes in glass HPLC vials comprising the mycotoxin to be analyzed and the enzyme to be tested. For Ochratoxin A (Petromyces albertensis, 01877 Sigma), 50 μL of a 100 ppm stock solution in methanol (final concentration of 5 ppm) was added to 910 μL of distilled water and 40 μL of the enzyme to be tested. In control reactions, the volume of enzyme was substituted with distilled water. The reactions were incubated in an Eppendorf thermomixer at 37° C. with shaking at 750 rpm. 100 μL samples were withdrawn at 1, 4 and 24 h for chromatographic analysis.
Mycotoxin analysis was carried out using a Shimadzu LCMS-2020 equipped with a UV/vis detector. Chromatographic separation of 10 μL injected sample was carried out at 30° C. on a Kinetex 2.6 μm XB-C18 column 100 Å (50×2.1 mm) using a binary gradient. For Ochratoxin A, eluent A consisted of water and eluent B consisted of acetonitrile and the UV detection wavelength was 360 nm.
The five enzymes tested were screened for their ability to degrade 5 ppm (5,000 ppb) Ochratoxin A at 37° C.

B1: KrCUT: mature Kineococcus radiotolerans cutinase, amino acids 34-294 of SEQ ID NO: 1; SEQ ID NO: 6 (protein)
chain: ATCSDVDVVFARGTGETPGLGVVGGPFVRSLTGELSDRTVTSHAVDYAASSSQASAGPGATAMSAHVREVAAACPSTRFVLGGYSQGATVTDIALGIRTGTTTGTPVPAELAGRVAAVVVFGNPLGLSGRTIATASSTYGPKSKDYCNSSDSVCGSAPKTGTGGHLSYASNGSTTDGARFAAGLVRAAGTPTTPTPTPTPTPVPTTCVRDSTRDHVAADRAVSLYGRAYARGSRDSLGATSSYNVVSLQQVEGGWRLVTAC
modifications: Kineococcus radiotolerans; (1)..(261) KrCUT (lacking residues 1-33 of ssKrCUT)
- activity of crude culture supernatant [1]: 1.6 U/mL
- Enzymatic activity of the purified variant ([2]; pNP-palmitate): 197 ± 3 U/mg
- Spec. Act. (U/mg) ([2]; towards pNP-palmitate (standard assay)): 197 ± 3 U/mg
- Relative activity, pNP-acetate (C2) [3]: 2%
- Relative activity, pNP-butyrate (C4) [3]: 26 ± 2%
- Relative activity, pNP-caprylate (C8) [3]: 25 ± 3%
- Relative activity, pNP-decanoate (C10) [3]: 25 ± 3%
- Relative activity, pNP-myristate (C14) [3]: 100* %
- Relative activity, pNP-palmitate (C16) [3]: 98 ± 6%
- Temp. opt. (° C.) (Temperature optimum): 45 °C
- Relative activity at temperature (Temperature optimum; 20 ° C.): 83 ± 5%
- Relative activity at temperature (Temperature optimum; 25 ° C.): 84 ± 4%
- Relative activity at temperature (Temperature optimum; 30 ° C.): 83 ± 4%
- Relative activity at temperature (Temperature optimum; 35 ° C.): 84 ± 4%
- Relative activity at temperature (Temperature optimum; 40 ° C.): 89 ± 6%
- Relative activity at temperature (Temperature optimum; 45 ° C.): 100* %
- Relative activity at temperature (Temperature optimum; 50 ° C.): 90 ± 4%
- Relative activity at temperature (Temperature optimum; 55 ° C.): 38 ± 3%
- Relative activity at temperature (Temperature optimum; 60 ° C.): 15 ± 5%
- Relative enzymatic activity (%) ([4]; 2-Propanol 5% (v/v)): 55 ± 11%
- Relative enzymatic activity (%) ([4]; 2-Propanol 10% (v/v)): 8%
- Relative enzymatic activity (%) ([4]; Acetone 1% (v/v)): 71 ± 2%
- Relative enzymatic activity (%) ([4]; Acetone 5% (v/v)): 47 ± 7%
- Relative enzymatic activity (%) ([4]; Dimethyl sulfoxide (DMSO) 10% (v/v)): 106 ± 4%
- Relative enzymatic activity (%) ([4]; Dimethyl sulfoxide (DMSO) 20% (v/v)): 14 ± 2%
- Relative enzymatic activity (%) ([4]; Dimethyl sulfoxide (DMSO) 30% (v/v)): 2%
- Relative enzymatic activity (%) ([4]; Dimethylformamide (DMF) 5% (v/v)): 55 ± 11%
- Relative enzymatic activity (%) ([4]; Methanol 10% (v/v)): 91 ± 12%
- Relative enzymatic activity (%) ([4]; Methanol 20% (v/v)): 8%
- pH opt. (pH dependence of enzymes): 8.5
- Relative activity (%) (pH dependence of enzymes; pH 6.5, sodium phosphate buffer): 22 ± 1%
- Relative activity (%) (pH dependence of enzymes; pH 7.0, sodium phosphate buffer): 53 ± 2%
- Relative activity (%) (pH dependence of enzymes; pH 7.5, sodium phosphate buffer): 72 ± 4%
- Relative activity (%) (pH dependence of enzymes; pH 8.0, Tris/HCl): 87 ± 6%
- Relative activity (%) (pH dependence of enzymes; pH 8.5, Tris/HCl): 100* %
- Relative activity (%) (pH dependence of enzymes; pH 9.0, Tris/HCl): 96 ± 4%
- Relative activity (%) (pH dependence of enzymes; pH 9.5, Tris/HCl): 76 ± 7%
- Relative activity (%) (pH dependence of enzymes; pH 10, Tris/HCl): 37 ± 5%
- Relative activity (%) after exposure to hydrogen peroxide ([5]; H2O2 30 ppm, Day 0): 100 ± 9%
- Relative activity (%) after exposure to hydrogen peroxide ([5]; H2O2 30 ppm, Day 1): 90 ± 6%
- Relative activity (%) after exposure to hydrogen peroxide ([5]; H2O2 30 ppm, Day 2): 75 ± 3%
- Relative activity (%) after exposure to hydrogen peroxide ([5]; H2O2 30 ppm, Day 3): 75 ± 8%
- Relative activity (%) after exposure to hydrogen peroxide ([5]; H2O2 30 ppm, Day 7): 76 ± 2%
- Relative activity (%) after exposure to hydrogen peroxide ([5]; H2O2 100 ppm, Day 0): 104 ± 6%
- Relative activity (%) after exposure to hydrogen peroxide ([5]; H2O2 100 ppm, Day 1): 91 ± 6%
- Relative activity (%) after exposure to hydrogen peroxide ([5]; H2O2 100 ppm, Day 2): 88 ± 6%
- Relative activity (%) after exposure to hydrogen peroxide ([5]; H2O2 100 ppm, Day 3): 76 ± 2%
- Relative activity (%) after exposure to hydrogen peroxide ([5]; H2O2 100 ppm, Day 7): 66 ± 2%
- Relative activity (%) after exposure to hydrogen peroxide ([5]; H2O2 300 ppm, Day 0): 102 ± 4%
- Relative activity (%) after exposure to hydrogen peroxide ([5]; H2O2 300 ppm, Day 1): 87 ± 2%
- Relative activity (%) after exposure to hydrogen peroxide ([5]; H2O2 300 ppm, Day 2): 74 ± 1%
- Relative activity (%) after exposure to hydrogen peroxide ([5]; H2O2 300 ppm, Day 3): 63 ± 2%
- Relative activity (%) after exposure to hydrogen peroxide ([5]; H2O2 300 ppm, Day 7): 49 ± 4%
- Relative activity (%) after exposure to hydrogen peroxide ([5]; H2O2 1,500 ppm, Day 0): 102 ± 10%
- Relative activity (%) after exposure to hydrogen peroxide ([5]; H2O2 1,500 ppm, Day 1): 80 ± 4%
- Relative activity (%) after exposure to hydrogen peroxide ([5]; H2O2 1,500 ppm, Day 2): 67 ± 4%
- Relative activity (%) after exposure to hydrogen peroxide ([5]; H2O2 1,500 ppm, Day 3): 44 ± 2%
- Relative activity (%) after exposure to hydrogen peroxide ([5]; H2O2 1,500 ppm, Day 7): 11 ± 1%
- Relative activity (%) after exposure to hydrogen peroxide ([5]; H2O2 3,000 ppm, Day 0): 98 ± 9%
- Relative activity (%) after exposure to hydrogen peroxide ([5]; H2O2 3,000 ppm, Day 1): 60 ± 2%
- Relative activity (%) after exposure to hydrogen peroxide ([5]; H2O2 3,000 ppm, Day 2): 33 ± 1%
- Relative activity (%) after exposure to hydrogen peroxide ([5]; H2O2 3,000 ppm, Day 3): 20 ± 4%
- Relative activity (%) after exposure to hydrogen peroxide ([5]; H2O2 3,000 ppm, Day 7): no activity was detected
- Residual ochratoxin A (%) ([6]; 1 h): 63%
- Residual ochratoxin A (%) ([6]; 4 h): 17%
- Residual ochratoxin A (%) ([6]; 24 h): 7%
- Ochratoxin A Degradation per U and h ([6]; per 1 U of enzyme (pNP standard test) and hour at 37° C.): 0.02 µmol

Reference: US10227575B2, “Multi-domain enzymes having cutinase activity, compositions comprising same and uses thereof” (OZYMES, priority 2015, dated 2019)
